The results in this text go back to publication PMC3245711.

In this assay the target is T1, human KCNJ2 channel (pND-CTFH construct, C-terminal FLAG and octa-histidine tags) (human), P63252.
T1 chain: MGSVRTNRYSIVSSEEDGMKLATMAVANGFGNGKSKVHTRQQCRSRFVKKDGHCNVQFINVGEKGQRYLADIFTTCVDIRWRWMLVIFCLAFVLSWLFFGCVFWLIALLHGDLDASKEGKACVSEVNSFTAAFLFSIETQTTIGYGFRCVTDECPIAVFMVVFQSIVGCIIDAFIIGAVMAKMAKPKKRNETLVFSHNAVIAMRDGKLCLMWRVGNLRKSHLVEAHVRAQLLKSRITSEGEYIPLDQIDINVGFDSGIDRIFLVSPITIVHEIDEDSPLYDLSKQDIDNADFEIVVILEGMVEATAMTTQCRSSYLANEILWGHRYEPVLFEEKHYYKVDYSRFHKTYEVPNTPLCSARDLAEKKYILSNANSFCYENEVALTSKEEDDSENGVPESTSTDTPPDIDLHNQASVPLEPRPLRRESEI
Description: SEC. To be noted: remark: other sources report otherwise.

B1: human KCNJ2 channel (pND-CTFH construct, C-terminal FLAG and octa-histidine tags), P63252 1-427 (natural protein)
chain: MGSVRTNRYSIVSSEEDGMKLATMAVANGFGNGKSKVHTRQQCRSRFVKKDGHCNVQFINVGEKGQRYLADIFTTCVDIRWRWMLVIFCLAFVLSWLFFGCVFWLIALLHGDLDASKEGKACVSEVNSFTAAFLFSIETQTTIGYGFRCVTDECPIAVFMVVFQSIVGCIIDAFIIGAVMAKMAKPKKRNETLVFSHNAVIAMRDGKLCLMWRVGNLRKSHLVEAHVRAQLLKSRITSEGEYIPLDQIDINVGFDSGIDRIFLVSPITIVHEIDEDSPLYDLSKQDIDNADFEIVVILEGMVEATAMTTQCRSSYLANEILWGHRYEPVLFEEKHYYKVDYSRFHKTYEVPNTPLCSARDLAEKKYILSNANSFCYENEVALTSKEEDDSENGVPESTSTDTPPDIDLHNQASVPLEPRPLRRESEI
Consider B1, for which the stoichiometry N (as a rule, a count of units in the complex or per binding partner) was found to be 4.
